Results on 1 substance are retold here after paper PMC11286566.

Assay [1] deals with Catcher-AP205 (Catcher of the isopeptide linkage system, flexible linker, bacteriophage AP205 VLP subunit) (bacteriophage AP205). Nature of the assay: SDS-PAGE densitometry of the covalent conjugate; catcher-AP205 and gE-Tag mixed at a 1:2 molar ratio, 24 h at 22°C, then dialysed into 50 mM glycine, 25 mM sodium citrate, 0.1% Tween 20, pH 6.2; coupling efficiency by densitometry of reduced SDS-PAGE; isopeptide bond between Tag and Catcher.

For assay [2], the target named is Catcher-Ferritin (Catcher of the isopeptide linkage system, flexible linker, Ferritin NP subunit). Description: SDS-PAGE densitometry of the covalent conjugate; catcher-Ferritin and gE-Tag mixed at a 1:6 molar ratio, 24 h at 4°C; uncoupled gE-Tag removed by SEC (Superdex 200 Increase, 20 mM Tris-HCl, 25% sucrose w/v, pH 7.4); coupling efficiency by densitometry of reduced SDS-PAGE; isopeptide bond between Tag and Catcher.

With “gE-Tag (extracellular domain of VZV glycoprotein E with a C-terminal Tag of the isopeptide linkage system) (from UniProt P09259 31-544)”, the conjugation efficiency in assay [1] and in assay [2] was over 70% each time.
